Test results from patent US6596504B2, “Treatment of prophylaxis of diseases caused by pilus-forming bacteria” (Washington University, priority 1993, dated 2003).

What was measured:
PapD [1] = target: T1, PapD (Escherichia coli, UniProt P15319); test: ELISA: PapD binding to immobilized second site peptides of PapG; set-up: species or system E. coli; conditions: peptide coated on wells, 200 pmol PapD
T1 construct: (A) NAME/KEY: mat_; made in house; Lindberg et al. 1989
T1 sequence (P15319 22-239): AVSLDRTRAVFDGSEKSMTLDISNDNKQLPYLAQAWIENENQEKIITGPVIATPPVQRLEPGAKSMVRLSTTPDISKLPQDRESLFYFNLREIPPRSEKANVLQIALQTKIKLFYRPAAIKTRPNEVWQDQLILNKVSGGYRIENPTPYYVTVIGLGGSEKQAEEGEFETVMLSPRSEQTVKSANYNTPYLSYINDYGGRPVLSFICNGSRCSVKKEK
Experimental: Four synthetic peptides overlapping the PapG region from residue 156′ to 120′ (indicated in FIG. 20) were coated to wells of microtiter plates. The concentration of each peptide in the wells is indicated. Binding of 200 pmol/[…] of PapD to the immobilized peptide was determined by ELISA using anti-PapD antiserum.
For assaying the second site peptides, all the peptides were dissolved in dimethyl sulfoxide (DMSO, Sigma, St. Louis, Mo., USA) to a final concentration 2 mM. The stock solutions were diluted to a proper concentration in PBS and coated overnight on microtiter wells at 4° C. All the peptide solutions were adjusted to the same DMSO concentration. The subsequent steps followed the procedure described above.

PapD [2] = target: T1, PapD; test: ELISA: PapD binding to immobilized MBP/G fusion proteins; set-up: species or system E. coli; conditions: 50 pmol PapD
Experimental: (B) Amylose affinity purified NBP/G fusion proteins were coated to wells of microtiter plates. The concentration of the MBP/G proteins in the wells is indicated. Binding of 50 pmol/[…] of PapD to the immobilized proteins was determined by ELISA using anti-PapD antiserum.
Stock solutions of MBP/G fusion proteins in PBS were diluted to 40 pmol/50 μl with PBS. The solutions of the 40 pmol/50 μl MBP/G fusion proteins were serially diluted in PBS and 50 μl of each solution were used to coat the wells of a 96-well Nunc Immunoplate (Inter Med, DK-4000 Roskilde, Denmark) overnight at 4° C. The wells were then washed with PBS and blocked with 200 μl of […] in PBS for 2 hours at 25° C. The plates were washed vigorously three times with PBS and incubated with 50 μl of PapD diluted at 50 pmol PapD in 50 μl 3% BSA-PBS for 45 minutes at 25° C. After three washings with PBS, the wells were incubated with a 1:500 dilution of rabbit anti-PapD antiserum in 3% BSA-PBS for 45 minutes at 25° C. After three washings with PBS, the wells were incubated with a 1:1000 dilution of goat antiserum to rabbit IgG coupled to alkaline phosphatase in 3% BSA-PBS for 45 minutes at 25° C. […] The reaction was incubated for 1 hour in the dark at 25° C. and the absorbance at 405 nm was read.

PapD [3] = target: T1, PapD; test: PapD-MBP/G interactions in vivo: co-elution of PapD on amylose affinity chromatography; type: binding, E. coli
Experimental: Strains carrying MBP or MBP/G fusion gene plasmids were induced in LB broth culture with 1 mM isopropylthiogalactoside (IPTG). Periplasmic extracts were prepared as described (Slonim et al., 1992). One tenth volume of 10×phosphate-buffered saline (PBS, 120 mM NaCl, 2.7 mM KCl, 10 mM Na2HPO4 and 2 mM KH2PO4, pH 7.4) was added to the periplasmic extract. Amylose resin was then added to the periplasmic extracts at a 1:5 ratio. The mixture was rocked at 4° C. overnight and the beads were subsequently washed 5 times with PBS. MBP or MBP/G fusion proteins were eluted with 20 mM maltose in PBS by rocking at 4° C. for an hour. Protein concentrations were determined using the Bio-Rad DC protein assay kit (Bio-Rad Laboratories, Hercules, Calif., USA). The full length fusion protein concentration was further quantitated by the Coomassie stained SDS-PAGE gel with known concentrations of bovine albumin (BSA) as the standards followed by densitometry scanning. […]
The ability of PapD to bind to the MBP/G fusions was investigated using amylose affinity chromatography (Kellermann and Ferenci, 1982). […] Periplasmic extracts from each strain containing the MBP/G proteins and PapD were subjected to amylose affinity chromatography and the eluates analyzed by SDS-PAGE (FIG. 21A) and by western blotting with anti-PapD antisera (FIG. 21B). […]

HB101/pFJ3 [4] = test: Hemagglutination titer on co-expression of MBP/G fusions with the pap operon; type: cell-based, E. coli
Experimental: HB101/pFJ3 harbouring various MBP/G fusion plasmids was passaged on Trypticase Soy Agar (TSA, Becton Dickinson, Cockeysville, Md., USA) three times to induce P-pili expression. At the last passage, the expression of MBP/G fusions was induced on TSA containing 100 μM IPTG. The cells from different strains were then collected and the HA titers were determined as described (Jacob-Dubuisson et al., 1993b).
PapD is essential for P-pilus assembly (Hultgren et al., 1991). […] The ability of the MBP/G fusions to block pilus formation by inhibiting chaperone-subunit complex formation when co-expressed in trans with the pap operon was tested. Plasmids pMAL-p4, pMAL/G1′-19′, pMAL/G1′-81′ and pMAL/G1′-140′ were transformed into the strain HB101/pFJ3 which contains the pap operon under the control of its own promoter in the vector pACYC184 (Jacob-Dubuisson et al. 1993b). Each MBP/G fusion protein was localized in the periplasm as determined by SDS-PAGE and western blotting with anti-MBP antisera (data not shown). Hemagglutination (HA) assays were performed on the cells co-expressing the pap operon with either MBP (pMAL-p4) or with each of the MBP/G fusions. Co-expression of the MBP/G1′-140′ fusions with the pap operon decreased the HA titer 30 fold compared to the MBP control (see table 3).

HB101/pFJ3 [5] = test: Pili preparation and quantitation on co-expression of MBP/G fusions; type: cell-based, E. coli
Experimental: The cells obtained from TSA plates were collected. Pili were prepared from the same amounts of cells using the procedure described previously (Jacob-Dubuisson, et al., 1993b). These pili preparations were boiled in Lammeli sample buffer with 4 M urea, then analyzed on Coomassie blue stained SDS polyacrylamide gels. The relative amount of piliation was quantified by densitometric scanning of the PapA bands.

PapD [6] = target: T1, PapD; test: In vitro complex formation of PapD with MBP/G fusion proteins on silver stained IEF gel; type: binding, E. coli
Experimental: (A) PapD was incubated with 1 μg of amylose affinity purified MBP (lane), MBP-G1′-19′ (lane 2), MBP-G1′-81′ (lane 3), or MBP-G1′-140′ (lane 4) and complex formation was evaluated on the silver stained IEF gel. Positions of MBP/G fusions, PapD and the PapD-MBP-G1′-140′ complex are indicated.
The interaction between PapD and MBP/G fusion in vitro was assayed by incubating purified PapD (1 μg) and amylose bead affinity purified MBP/G fusion protein (1 μg) in 4 μl PBS for 30 minutes and then applied to IEF (pI 3-9), followed by silver staining. Another in vitro assay that is more quantitative is the ELISA described below.

G1′-19′WT peptide = target: T2, G1′-19′WT peptide (Escherichia coli, UniProt P13720); test: Native polyacrylamide gel mobility shift of PapD (wild type and mutants) with G1′-19′WT peptide; type: binding, E. coli; conditions: native-PAGE assay
T2 construct: G1′-19′ denotes the 19 C-terminal amino acid residues of PapG; made in house; host or cells: synthetic peptide
Excerpt: The ability of the mutant chaperones to bind pilus subunits and modulate pilus assembly in vivo was correlated to their ability to bind to the G1′-19′WT peptide and to PapG in vitro. […] Similarly, mutations in Arg-8 and Lys-112 abolished the ability of PapD to bind to PapG and reconstitute the PapD-PapG complex in vitro (FIG. 7) and to bind to pilus subunits and mediate pilus assembly in vivo (cf. table 2).

PapD [7] = target: T1, PapD; test: PapD complex formation with PapG truncates (acidic native gel, western blotting); type: binding, E. coli; conditions: co-expressed in KS474
Experimental: Periplasm containing PapD and PapG, PapG2 or PapG3 (lane 2, 3 and 4 respectively) were subjected to Gal α(1-4) Gal chromatography and eth eluates were analyzed on acidic native gel electrophoresis following western blotting using anti-PapD (A) and anti-PapG (B) antisera. Purified PapD-PapG complex was loaded-in lane 1.
PapD and the PapG-truncates were co-expressed in KS474, the truncates were induced at OD600 0.6 with 0.5 mM IPTG and PapD under the control of the arabinose promoter was induced with 0.2% arabinose. After one hour induction, periplasmic extracts were prepared and rocked with Gal α(1-4) Gal beads overnight at 4° C. and eluted with 15 μg/ml Gal α(1-4) Gal-TMSET solution as described previously (Hultgren et al., 1989; Kuehn et al., 1991). The eluates were analyzed by acidic native gel eletrophoresis (Striker et al., 1994) followed by western blotting using anti-PapD and anti-PapG antiserum.

Molecule: G125′-140′: peptide of C-terminal amino acid residues 125′ to 140′ of PapG, SEQ ID NO: 20 (DQIKQLPATNTLMLSF)
- binding to PapD in ELISA (PapD [1]): bound to PapD

Molecule: MBP/G1′-19′: fusion of maltose binding protein and COOH-terminal residues 1′-19′ of PapG
- PapD binding to immobilized fusion protein (PapD [2]): weakly
- interaction of PapD with MBP/G protein in vivo (co-elution) (PapD [3]; co-expressed, SDS-PAGE and western blot of eluates): only weakly
- stable complexes with PapD in the eluates (PapD [3]; silver stained IEF gel): not possible to detect stable complexes
- effect on hemagglutination (HB101/pFJ3 [4]; co-expression in strains producing P pili): only weak effects on the HA titer
- HA titer (HB101/pFJ3 [4]; highest dilution of cell suspension yielding detectable HA, co-expression with pap operon): 64
- reduction of the amount of pili compared to MBP alone (HB101/pFJ3 [5]; co-expression with pap operon): about 50%
- Pilation percentage (HB101/pFJ3 [5]; densitometry of PapA bands, control HB101/pFJ3/pMAL-p4 = 100%): 50%
- inhibition of pilus assembly (HB101/pFJ3 [5]; expression in cells producing P pili): weak inhibitors
- complex formation with PapD in vitro (PapD [6]): no complexes

B1: wild type PapD: periplasmic chaperone PapD of E. coli, wild type (protein, UniProt P15319 22-239, looked up)
Chaperone protein PapD: T1 sequence (P15319 22-239)
- mobility shift on incubation with G1′-19′WT peptide (G1′-19′WT peptide): cause a mobility shift

B2: full-length PapG: P pilus tip adhesin PapG (protein)
chain: GWHNVMFYAFNDYLTTNAGNVKVIDQPQLYIPWNTGSATATYYSCSGPEFASGVYFQEYLAWMVVPKHVYTNEGFNIFLDVQSKYGWSMENENDKDFYFFVNGYEWDTWTNNGARICFYPGNMKQLNNKFNDLVFRVLLPVDLPKGHYNFPVRYIRGIQHHYYDLWQDHYKMPYDQIKQLPATNTLMLSFDNVGGCQPSTQVLNIDHGSIVIDRANGNIASQTLSIYCDVPVSVKISLLRNTPPIYNNNKFSVGLGNGWDSIISLDGVEQSEEILRWYTAGSKTVKIESRLYGEEGKRKPGELSGSMTMVLSFP
- complex formation with PapD (PapD [7]): formed a complex
